Assay: yeast display, Sf9 membrane polyspecificity reagent, FACS + sequencing; frameworks hold sequencing errors
Outline: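 Galactose induction of a Saccharomyces cerevisiae BJ5465 synthetic nanobody display library ran 36–48 hours. The cells were then stained for 1 hour at 4 °C with 10% biotinylated, detergent-solubilized Sf9 membrane reagent, pulled down on streptavidin microbeads and FACS-sorted into low and high (top ~1%) gates on expression and reagent-binding fluorescence. Labels for polyreactivity follow the gate of origin.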

Row | Sequence | polyreactivity (PSR sort gate)
1 | QVQLVESGGGLVQAGGSLRLSCSASGSISGYYAMGWYRQAPGKERELVASIRYTGARTYYADSVKGRFTISRDNAKNTVYLQMNSLKPEDTAVYYCAAERSWYTWFASDYDYWGQGTQVTVSS | low polyreactivity
2 | QVQLVESGGGFVQAGGSLPLSCAASGRTFGPYAMRWYRQAPGKERELVAAISSSDGSTYYADSVKGRFTISRDNAKNTVYLQMNSLKPEDTAVYYCNARYYLWSTTRWYGYDYWGQGTQVTVSS | high polyreactivity
3 | QVQLEESGGGLFQAGGSLRLSCAASGRTFPGNAMGWYRQAPGKERELVAAISYSGGRTYYADSVKGRFTISRDNAKNTVYLQMNSLKPEDTAVYYCNAWARLGRYEYWGQGTQVTVSS | high polyreactivity
4 | QVQLVESGGGLVQAGGSLRLSCAASGSTFVYYAMGWYRQAPGKERELVAAISWSSDSTYYADSEKGRFTISRDNAKNTVYLQMNSLKPEDTAVYYCARSDGRQSYWTDFSTDYYFWGQGTQVTVSS | low polyreactivity
5 | QVQLVESGGGLVQAGGSLRLSCAASGRIFWSNAMGWYRQAPGKEREFVAAISSSGGRTYYADSVKGRFTISRDNAKNTVYLQMNSLKPEDTAVYYCAASNGYQAVTYDYWGQGTQVTVSS | high polyreactivity
6 | QVQLVESGGGLVQAGGSLRLSCAASGSIFFYYAMGWYRQAPGKERELVAAINSDGSTNYADSVKGRFTISRDNAKNTVYLQMNSLKPEDTAVYYCAAYDEYYGYDYWGQGTQVTVSS | low polyreactivity
7 | QVQLVESGGGLVQAGGSLRLSCAASGSNFPWNAKGWYRQAPGKERELVAGINESGGSTYYADSVKGRFTISRDYAKNTVYLQMNSLKPEDTAVYYCAADGYPSVGDDYWGQGTQVTVSS | low polyreactivity
8 | QVQLVESDGGLVQAGGSLRLSCAASGIIFGYYVMGWYRPAPGKERELVASITSGGSTNYADSVKGRFTISRDNAKNTVYFQMNSLKPEDTAVYYCAAEERTDTIPGWRYPHDYWGQGTQVTVSS | low polyreactivity
9 | QVQLQESGAGLEQAGGSLRMSCAASGYSSDIGTMGWYRQAPGKEREFVATIVVGSTTNYADSVKGRFTISRDNAKNTVYLQPESGRYRGVLLRGWLLAVGKFTYWGQGTQETVSS | low polyreactivity
10 | QVQIVESGGGLVQAGGSLRLSCAASGRNFGRYAMGWYRHAPRKERELVATISSGGSTYYADSVKGRFTISRDNAKNTVYLPMNSLKQEDTAVYYCAADYLSYYLYEGSIKYGYWGQGTQVSVSS | high polyreactivity
11 | QVQLVESGGGLVQAGGSLRLSCAASGINFGKYAMGWYRQAPGKERELVAAITSGDSTYYADSVKGRFTISRDNAKNTVYLQMNSLKPEDTAVYYCNADAWRSQSWWHGLMEYWGQGTQVTVSS | low polyreactivity
12 | KVQLVESGGGIVQAGGSLRLSCAASGSTFVRNAMGWYRQAPGKERELVAGITFGGGSTYYADSVKGRFTISRDNAKNTVYLQMNSLKAEDTAVYFCAKRDYSPWPAAGYPYDYDYWGQGTQVTVSS | low polyreactivity
13 | QVQLVESGGGLVQAGGSLRLSCAASGRIFRRNAMGWYRQAPGKEREFVAAITSSGDSTNYADSVKGRFTISRDNAKNTVYLQMNSLKPEDTAVYYCAADWARSALQGFYYWGQGTQVTVSS | low polyreactivity
14 | QVQLVESGGALVQAGGSLRLSCAASGRTFGHNAMGCSRQAPGKEREFVAAITYSGVRTFYADSVKGRFTISRDNAQNTVYLQMNSLKPEDTAVYYCATDWRRDYDYWGQGTQVTVSS | low polyreactivity
15 | QVQLVESGGGLVQAGGSLRLSCAASGSIFGLYAMGWYRQAPGKERELVAAISSRGSSTYYADSVKGRFTISRDNAKNTVYIQMNSLKPEDTAVYYCNAYPFSRSVQLRDYWGQGTQVTVSS | low polyreactivity
16 | QVQLVESGGGLVQAGGSLRLSCAASGSTFTYYAMGWYRQAPGKERELVAAITGGGSTNYADSVKGRFTISRDNAKNTVYLQMNSLKPEDTAVYYCAARTARYYYGWRYTGEYGYWGQGTQVTVSS | high polyreactivity
17 | QVQLVESGGRLVQAGGSLRLSCAASGSIFTPYAMGCYIQAPGKERELVAAIRSVVRTNYADSVKGRFTISRDNAKNTVYLQLNSLNPEDTAVYYCATAVYPDFEYDSWGQGTQVTVSS | low polyreactivity
18 | QVQLVESGGGLVQAGGSLRLSCAASGFIFWSYAMVWYRQAPGKERELVAAISHGGSTNYADSVKGRFTISRDNSKNTVYLQMNSLKPEDTAVYYCAKDELYIPGVWPYYEYDYWGQGTQVTVSS | low polyreactivity
19 | QVQLVESGGGLVQAGGSLRLSCAASGRIDLYNDMGWYRQAPGKERELVAAITWRSGSTYYADSVKGRFTFSRDNAKNTFYCQMNSLNPEDTAVYYCAKRGSGYKQDFKSYSGHYWGHGTQVTVSS | high polyreactivity
20 | QVQLVESGGGLVQAGGSLRLSCAASGSIISGYAMGWYRQAPGKERELVASISSSGGRTYYAYSVKGRYTISRDNAKNTVYLPRNSLKPEDTAVYYCNVKSYTYGYLPYDYWGQGTQVTVSS | high polyreactivity
21 | QVQLVESGGGLVQAGGSLRLSCAASGSTFVYNAMGWSRQAPGKERELVAVITYRGGRTYYADSVKGRFTISRDNAKNTVYLQINSLKPEDTAVYYCAKRVYGSKVRGYDYWGQGTQVTVSS | high polyreactivity
22 | QVQLVESGGGLVQAGGSLRLSCAASGYTFPLYAMGWYRQAPGTERELVADINIGGASTYYADSVKGRFTISRDNAKNTVYLQMNSLKPEDTAVYYCAADYTVRVVATYDYWGQGTQVTVSS | low polyreactivity

Row | Sequence | polyreactivity (PSR sort gate)
23 | QVQLVESGGGLVQAGGSLRLSCAASGYIFGQYAMGWYRQAPGKERELVADITRGGDTYYADSVKGRFTISRDNAKNTVYLQMNSLKPEDTAVYYCAADSFYWAWQYDYWGQGTQVTVSS | high polyreactivity
24 | QVQLVESGGGLVQAGGSLRLTCAASGLTFPKYAMGWYRQAPGKERELVAAITQRGGSTYYADSVKGRFTISRDNAKNTVYLQMNSLKPEDTAVYYCNARRRDYNNRREFDYWGQGTQVTVSS | high polyreactivity
25 | QVQLVESGRGLVQAGGSLRLSCAASGSTFDGYAMGWYRQAPGKERELVAAINWGGGSTRYADSVKGRFTISRDNAKNTVYLQMNSLKPEDTAVYYCAKYTSSRFDAFNYWGQGTQVTVSS | high polyreactivity
26 | QVQLVESGGGLVQAGGSLRLSCAASGSIFYTYAMGWYRQAPGKERELVAVISYGGGRTYYADSVKGRFTISRDNAKNTVYLQMNSLKPEDTAVYYCAASYSFYAFSVPYYYWGQGSQVTVSS | high polyreactivity
27 | QVQLVESGGGLVQAGGSLRLTCAASGRTFRQYAMGWYRQAPGKERELVAAIRTNGGRTYYADSVKGRFTISRDYAKNTVYLQFNSLKPEDTAVYYCAVYAVVQGVLFDYWGQGTQVTVSS | high polyreactivity
28 | QVQLVESGGGLVQAGGSLRLSCAASGRIFHGNAMGWYRQAPGKEREMVAAITSGGRTFYADSVKGRFTISRDNAKNTVYLQMNSLIPEDTAVFYCNAPSIAGYAEYNSHDYWGQGTQVTVSS | high polyreactivity
29 | QVQLVESGGGLVQAGGSLRISCAASGSIFPAYDMGWYRQAPGKERELVAAITRGGSTDYADSVNGRFTISRDNAKNTVYLQMNSLKPEDTAVYFCAKRGYYYYHYVSGKPEDYWGQGTQVTVSS | low polyreactivity
30 | QDQRVESGGGLVQAGGSLRLSCAASGRTFKGNARGWYRQAPGKERELVAAISKSGGRTYYADSVKARFTISRDNAKNTVYLQMNSLKPEDTAVYYCAVDEGPTIVRFGYSGQGTQVTVSS | high polyreactivity
31 | QVQLVESGGGLVQAGGSLRLSCAASGRTLGVYAMGWYRPAPGKERELVATITAGGSITSYADSVKGRFTISRDNAKNTVYLQMNSLKPEDTAVYYCAADVPGNYRKYRYGRASSHDYWGQGTQVTVSS | low polyreactivity
32 | QVQLVESGGGLVQAGGSLRLSCAASGFIFGTYAMGWYRQAPGKERELVAAISVGGGSTYYADSVKGRFTISRDNAKNTVYLQMNSLKPEDTAVYYCAAVQLYQKHQITYVAHEYWGQGTQVTVSS | low polyreactivity
33 | QVQLVESGGGLVQAGGCLRLSCASSGRTFHLYAMGWYRQAPGKERELVAAITWSSGRTYYSDSVKGRFTISRDNAKNTVYVQMKSLKPEDTAVFYCAADVWGGLLPGYDYWGQGTQVTVSS | high polyreactivity
34 | QVQLVEAGGGLVQAGVSLRLSCAASGLTFVPNAMGWYRQAPGKERELVAAISNNGGRTYYADSVKGRFTISRDNAKNTVYLQMNSLKPEDTAVYYCAKYLSPGERHSYDYWGQGTQVTVSS | high polyreactivity
35 | QVQLVESGGGLVQAGGSLRLSCAASGRTFTRYAMGWYRQAPGKERELVATITRGGSTNYADSVKGRFTISRDNAKNTVYLQMNSLKPEDTAVYYCAAGYFIRTRSRYRYDYWGQCTQVTVSS | high polyreactivity
36 | QVQLVESGGGLVQAGGRHRLSCAPSGSIFRFYVMGWYIQAPGKERELVAAISIGGSTNYADSVKGRFTISRDNAKNTVYLQMNSLKPEDSAVYYCAADGPTYWWTTQWYWGDYWGQGTQVTVSS | low polyreactivity
37 | QVQLEESGGGLVQAGGSLRLSCAASGTFVTYMGWYRQAPGKERELVAAIRNGGSTNYADSVKGRFTISRDNAKNTVYLQMNSLKPEDTAVYYCAARVTYSRGYRGGSRTKYDYWGQGTQVTVSS | low polyreactivity
38 | QVQLVESGGGLVQAGGSLRLSCAASGRIFRSYAMGWYRQAPGKDRELVAAISSGDTTNYADSVKGRFTISRDNAKNTVYLQMNSLKPEDTAVYYCAAGFYYRGGYIQYEMNYWGQGTQVTVSS | high polyreactivity
39 | QVQLVESGGGLVQAGGSLRLSCAASGSIFVGYAMGWYRQAPGKEREVVAAISSSGTSTYYADSVKGRFTISRDNAKNTVYLQMNSLKPEDTAVYYCNARWYVPAYEFDYWGHGTQVTVSS | low polyreactivity
40 | QVQLVESGGGLVQAGGSLRLSCAASGCTFPLYLMGWYRQAPGKERELVAAIDWSGGSTYYADSVKGRFTISRDNAKNTVYLQMNSLKPEDTAVYYCAARYTSLRNYGYDYWGQGTQVTVSS | low polyreactivity
41 | QVHLVESGGGLVQAGGSLRLSCAASGGTFQDYTMGWYRQAPGKEREFVAAISLSGTRTYYADSVKGRFTISRDNAKNTVYFQMNSLKPEDSAVYYCSTSGPQYYSRNFDYWGQATQVTVSS | low polyreactivity
42 | QVQLVESGGGLVQPGVSLRLSCAASGRTSSSYTMGWYRQEPRKECELVAAITSGVRTYYADSVKGRFTISRDNAKNTVYLQMKSLKPEDTAVYYCNARYVPYTYCRKYFKPYDYWGLGTQVTVSS | high polyreactivity
43 | QVQLVESGGGLVQAGGSLRLSCAASGFIIEVNAMGWYRQAPGKERELVARIDWSGGSTYYADSVKGRFTISRDNAKNTVYLQMNSLKPEDTAVYYCNADWTYADPNEYGYWGQGTQVTVSS | low polyreactivity

Reference: the nanobody polyreactivity screen of Harvey et al. (2022)
